Data taken from patent US12269880B2, “LAG3 binding peptides” (Leidos, Inc., priority 2019, dated 2025).
“And” between values parts separate entries of the source, which are not always exact repeats. Equal entries are not always repeated.

What was measured:
human LAG3/FGL1 = biological target: T1, human LAG3/FGL1 (Homo sapiens, UniProt P18627); test: Human LAG3/FGL1 TR-FRET binding assay (BPS Bioscience)
T1 construct: purchased BPS Bioscience
T1 sequence (P18627 23-450 limits assumed): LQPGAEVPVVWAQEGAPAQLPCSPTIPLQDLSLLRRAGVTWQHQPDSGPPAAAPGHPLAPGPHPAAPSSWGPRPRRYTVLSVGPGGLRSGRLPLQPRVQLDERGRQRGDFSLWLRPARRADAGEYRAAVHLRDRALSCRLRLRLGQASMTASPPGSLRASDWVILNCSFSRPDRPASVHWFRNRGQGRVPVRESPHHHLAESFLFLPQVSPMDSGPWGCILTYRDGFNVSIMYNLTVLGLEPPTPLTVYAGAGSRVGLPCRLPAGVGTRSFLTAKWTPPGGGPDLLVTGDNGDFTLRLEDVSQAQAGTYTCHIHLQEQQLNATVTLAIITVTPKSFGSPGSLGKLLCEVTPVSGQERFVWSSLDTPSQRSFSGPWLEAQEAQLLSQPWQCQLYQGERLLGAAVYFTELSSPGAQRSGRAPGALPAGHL
Protocol: The peptides were tested using a human LAG3/FGL1 TR-FRET binding assay (BPS Bioscience) carried out according to the manufacturer's instructions.
Peptide stocks of LAG3-11, LAG3-42, LAG3-48, LAG3-51, LAG3-54, LAG3-56, LAG3-60 and OVA were prepared at 1 mM followed by a 1:5 dilution in plate reactions. LAG3-11 and OVA were tested at 200, 50, 13, 3, 0.8, 0.2, 0.05, and 0.01 μM. The other peptides were tested at 200, 50, 13, and 3 μM. A neutralizing anti-human LAG3 antibody (BPS Bioscience Cat. #71219) was used as a positive control.
Reaction mixes were incubated 1 hr at RT before development. After development, plate was read in a Tecan M1000 TR-FRET instrument. Percent activity was calculated as follows: % Activity=100×[(sample−minimum)/(maximum−minimum)]

LAG3/MHC-II interaction = biological target: T2, LAG3/MHC-II interaction (Homo sapiens, UniProt P18627); test: HTRF LAG3/MHC-II binding assay (Cisbio)
T2 construct: purchased Cisbio US Inc
T2 sequence (P18627 23-450 limits assumed): T1 sequence (P18627 23-450 limits assumed)
Text: FIG. 2 is a graph showing the results of a homogeneous time-resolved fluorescence (HTRF) assay for peptide LAG3-11. Reference Ab-LAG3 is an anti-LAG3 antibody. OVA, the ovalbumin (OVA) peptide (ISQAVHAAHAEINEAGR, SEQ ID NO:8). “HTRF ratio” is the emission at 665 nm (acceptor)/emission at 620 nm (donor) multiplied by a factor or 10^4.
A homogeneous time-resolved fluorescence (HTRF) LAG3/MHC-II binding assay (Cisbio US Inc.) was used to measure the interaction between MHC-II and LAG3 in the presence of peptides. In this assay, the interaction between Tag1-LAG3 and Tag2-MHC-II is detected by using anti-Tag1-Terbium (HTRF donor) and anti-Tag2-XL665 (HTRF acceptor). When the donor and acceptor antibodies are brought into close proximity due to LAG3 and MHC-II binding, excitation of the donor antibody triggers fluorescent resonance energy transfer (FRET) towards the acceptor antibody, which in turn emits specifically at 665 nm. This specific signal is directly proportional to the extent of LAG3/MHC-II interaction. Thus, an agent that blocks the interaction between LAG3 and MHC-II will cause a reduction in HTRF ratio.
An anti-human LAG3 antibody (Novoprotein #GMP-A092, Lot 0331158, 500 nM) was tested in the assay at an eleven-point, serially diluted semi-log dose response curve starting at 100 nM and served as a positive control. The ovalbumin peptide was used as a negative control. Peptides were reconstituted at a concentration of 20 mM in […] and tested at an eleven-point dose response curve starting at 100 µM followed by 4-fold dilutions. […]

[1] = biological target: T3, soluble recombinant human LAG3 (Homo sapiens, UniProt P18627); test: Clonal phage ELISA after phage display bio-panning; format: binding; conditions: for Clonal Phase ELISA uncoated signal: uncoated (background)
T3 construct: soluble recombinant human LAG3
T3 sequence (P18627 23-450 limits assumed): T1 sequence (P18627 23-450 limits assumed)
Text: The TriCo-20™, TriCo-16™, Ph.D.-12™, and Ph.D. C7™ Phage Display Peptide Libraries (Creative Biolabs, 45-1 Ramsey Road, Shirley, NY 11967) were screened by performing several rounds of bio-panning to identify binders of soluble recombinant human LAG3.

[2] = tested on: human peripheral blood mononuclear cell (PBMC); test: Human PBMC-based recall assay (EBV and CMV viral-specific peptides); format: cell-based; conditions: seven days post-stimulation
Protocol: PBMCs were obtained from a human donor who had previously been identified as a positive responder to Epstein-Barr virus (EBV) and Cytomegalovirus (CMV) viral-specific peptides. 5×10^5 PBMCs in 200 μL of media were stimulated with EBV and CMV viral-specific peptides in the presence or absence of LAG3-11. Seven days post-stimulation, the percentage of virus-specific CD8+ T cells were identified via flow cytometry using MHC-I tetramers. Supernatants were also collected and the amount of […] determined via ELISA.

[3] = tested on: interaction with LAG3 and its ligand MHC-II; test: Cell-based NFAT-luc2P luciferase reporter assay, LAG3 Jurkat / MHC-II Raji co-culture; parameters: species or system human; conditions: RLUs at 100 µM compared to RLUs at 0.64 µM
Text: A cell-based reporter assay was used to assess whether binding of the seven peptides identified above was sufficient to block the interaction with LAG3 and its ligand MHC-II. The components of the assay include (1) a Jurkat T cell line that stably expresses human LAG3 and a stable NFAT-luc2P luciferase reporter, (2) a Raji cell line that expresses human MHC-II, and (3) a positive control anti-LAG3 antibody that blocks the interaction of LAG3 and MHC-II. In brief, Jurkat cells expressing LAG3 are stimulated with a T cell receptor (TCR) activator molecule, resulting in expression of luciferase. When the Jurkat cells are co-cultured with an a Raji cell line expressing the MHC-II molecule, the interaction of LAG3 on the surface of a Jurkat cell with MHC-II on the surface of a Raji cell inhibits T cell activation, leading to a reduction in luciferase expression. The addition of a neutralizing antibody against LAG3 blocks the inhibition signal and allows luciferase expression to proceed. BIO-GLO™ (Promega) was used to measure luciferase expression. The seven LAG3 peptides were tested at concentrations of 0, 0.64, 1.6, 4, 10, 25, & 100 µM.
Results of the assay testing the seven LAG3 peptides identified above and a negative control peptide ([…]; SEQ ID NO:9) are shown in FIG. 1B.

[4] = LOG [Compound] M tested for peptide −4, single replicates
[5] = LOG [Compound] M tested for peptide −4.60206, single replicates
[6] = LOG [Compound] M tested for peptide −5.20412, single replicates
[7] = LOG [Compound] M tested for peptide −5.80618, single replicates
[8] = LOG [Compound] M tested for peptide −6.40824
[9] = LOG [Compound] M tested for peptide −7.0103, single replicates
[10] = LOG [Compound] M tested for peptide −7.61236, single replicates
[11] = LOG [Compound] M tested for peptide −8.21442, single replicates
[12] = LOG [Compound] M tested for peptide −8.81648, single replicates
[13] = LOG [Compound] M tested for peptide −9.41854, single replicates
[14] = LOG [Compound] M tested for peptide −10.0206
[15] = LOG [Compound] M tested for peptide −10.6227

For HIQNWSYWLNQDMMNQQVWKS (LAG3-56 peptide), the “inhibition of the interaction between human LAG3 and FGL1” value (human LAG3/FGL1) was “inhibit the interaction between human LAG3 and FGL1”, the HTRF ratio (LAG3/MHC-II interaction; [4]) was 4194 and 4083 and 4373 and the HTRF ratio (LAG3/MHC-II interaction; [5]) was 6880 and 7058 and 7142. For the same sequence, the HTRF ratio (LAG3/MHC-II interaction; [6]) was 8218 and 8349 and 8414, the HTRF ratio (LAG3/MHC-II interaction; [7]) was 8791 and 8658 and 8464 and the HTRF ratio (LAG3/MHC-II interaction; [8]) was 9040 and 9185 and 9082. The HTRF ratio (LAG3/MHC-II interaction; [9]) was 8147 and 9275 and 9111, the HTRF ratio (LAG3/MHC-II interaction; [10]) was 8935 and 9303 and 9093 and the HTRF ratio (LAG3/MHC-II interaction; [11]) was 8765 and 9591 and 9178. For the same sequence, the HTRF ratio (LAG3/MHC-II interaction; [12]) was 8856 (2×) and 8869, the HTRF ratio (LAG3/MHC-II interaction; [13]) was 9050 and 9029 and 9176 and the HTRF ratio (LAG3/MHC-II interaction; [14]) was 9022 and 8887 and 8540. The HTRF ratio (LAG3/MHC-II interaction; [15]) was 8885 and 9204 and 8617, the “Clonal Phase ELISA coated signal” value [1] was 0.529 and the “Clonal Phase ELISA uncoated signal” value [1] was 0.101.

SAPWEPLHWPEDWWQGTGEW (LAG3-11 peptide) was tested, and the “increase of IFN-7 secretion by human PBMCs” value ([2]; relative to the viral-specific peptides alone, ELISA) was 3 fold, the “increase in percentage of tetramer+ CD8 T cells” value ([2]; flow cytometry, MHC-I tetramers) was roughly 2 fold and the “inhibition of the interaction between human LAG3 and FGL1” value (human LAG3/FGL1) was “inhibit the interaction between human LAG3 and FGL1”. The HTRF ratio (LAG3/MHC-II interaction; [4]) was 3213 and 3460 and 3458, the HTRF ratio (LAG3/MHC-II interaction; [5]) was 4749 and 5287 and 5014 and the HTRF ratio (LAG3/MHC-II interaction; [6]) was 6812 and 6892 and 6696. The HTRF ratio (LAG3/MHC-II interaction; [7]) was 7774 and 8164 and 7993, the HTRF ratio (LAG3/MHC-II interaction; [8]) was 8538 and 8718 and 8858 and the HTRF ratio (LAG3/MHC-II interaction; [9]) was 8794 and 8729 and 8889. For the same sequence, the HTRF ratio (LAG3/MHC-II interaction; [10]) was 9090 and 9036 and 9329, the HTRF ratio (LAG3/MHC-II interaction; [11]) was 9012 and 9293 and 9067 and the HTRF ratio (LAG3/MHC-II interaction; [12]) was 8877 and 8955 and 8992. The HTRF ratio (LAG3/MHC-II interaction; [13]) was 8591 and 6950 and 8287, the HTRF ratio (LAG3/MHC-II interaction; [14]) was 8212 and 8748 and 8700 and the HTRF ratio (LAG3/MHC-II interaction; [15]) was 8886 and 8842 and 9097. For the same sequence, the “disruption of LAG3 and MHC-II interaction” value (LAG3/MHC-II interaction; four independent experiments) was “disrupts the interaction of LAG3 and MHC-II”, the “Clonal Phase ELISA coated signal” value [1] was 0.271 and the “Clonal Phase ELISA uncoated signal” value [1] was 0.093. The “fold inhibition (fold increase in luciferase activity)” value [3] was “approximately 2.8 fold”.
